Data reported in the supplement of paper PMC9170038.

Experiments:
MS2 coat protein [1] = test: apparent KD of MS2 coat protein, switch OFF state (with FMN for OFF switches, without FMN for ON switches); designed switch direction (-1 OFF switch, 1 ON switch): -1; higher = weaker reporter binding; conditions: FMN input: 0 or 200 uM; Eterna round: R93 (includes R88 designs)
In short: (§1)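 Designed RNA switches were transcribed on-chip from Illumina sequencing clusters. SNAP-549-labelled MS2 coat protein was titrated onto them in twofold steps from 0.7 or 1.5 nM to 3 µM in 100 mM Tris-HCl pH 7.5, 80 mM KCl, 4 mM MgCl2, either without or with constant ligand. Apparent KD reflects the per-design median of normalised cluster binding-curve fits.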

MS2 coat protein [2] = test: apparent KD of MS2 coat protein, switch ON state; designed switch direction (-1 OFF switch, 1 ON switch): -1; higher = weaker reporter binding; conditions: FMN input: 0 or 200 uM; Eterna round: R93 (includes R88 designs)
In short: as §1

MS2 coat protein [3] = test: apparent KD of MS2 coat protein; designed switch direction (-1 OFF switch, 1 ON switch): 1; higher = weaker reporter binding
In short: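 The apparent KD reported per design is the median over clusters of curve fits to normalised cluster fluorescence. The RNA switches were transcribed on Illumina chips by stalled E. coli RNA polymerase. SNAP-549-labelled MS2 coat protein was titrated from 0.7 or 1.5 nM, doubling up to 3 µM, in Tris-HCl pH 7.5 buffer containing KCl, MgCl2, BSA, DTT, tRNA and Tween-20, with no input, 200 uM small-molecule ligand, or an oligonucleotide input.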

[4] = input ligand: microRNA oligo, concentration not stated
[5] = Eterna round: R95, input ligand: FMN 200 uM
[6] = Eterna round: R95, input ligand: microRNA oligo, concentration not stated
[7] = Eterna round: R95, input ligand: none

| Sequence | apparent KD of MS2 coat protein (MS2 coat protein [3]; [4]) | apparent KD of MS2 coat protein (MS2 coat protein [3]; input ligand: FMN 200 uM) | apparent KD of MS2 coat protein (MS2 coat protein [3]; input ligand: none) | further results |
| --- | --- | --- | --- | --- |
| AAAAAAAGAGGAUAUACAUGAGAAAAAAAAAUGUAAAAAAAACAUGAGGAUCACCCAUGUAGAAGGCUUAAAAA [Ecxl-I] | – | – | – | apparent KD of MS2 coat protein (MS2 coat protein [1]): 0.0483 µM; apparent KD of MS2 coat protein (MS2 coat protein [2]): 0.0335 µM |
| AAAAAAAGAGGAUAUACGAACAUGUCGAAAGACGUGAAGGGACAUGAGGAUCACCCAUGUAGAAGGUUUAAAAA [Mat - Exclusion 2 - JL mod - D83] | – | – | – | apparent KD of MS2 coat protein (MS2 coat protein [1]): 0.0146 µM; apparent KD of MS2 coat protein (MS2 coat protein [2]): 0.0285 µM |
| AAAAAACAUGAGGAUCACCCAUGUAAGGAUAUCUAAAAUAAAAGAAAAAUAAAGAAAAGGAGAAGGUACAUGAA [JL wbt mod 21] | – | – | – | apparent KD of MS2 coat protein (MS2 coat protein [1]): 0.0506 µM; apparent KD of MS2 coat protein (MS2 coat protein [2]): 0.0286 µM |
| AAAAAACAUGAGGAUCACCCAUGUAAGGAUAUGCCUAAAAAAAAAAAAAAAAAAAAUGGCAGAAGGUGCAAAAA [excalibur15] | – | – | – | apparent KD of MS2 coat protein (MS2 coat protein [1]): 0.0353 µM; apparent KD of MS2 coat protein (MS2 coat protein [2]): 0.0416 µM |
| AAAAAACAUGAGGAUCACCCAUGUAAGGAUAUGUAAAAUAAAAGAAAAAUAAAGAAAAGCAGAAGGUACAAGAA [JL wbt mod 18] | – | – | – | apparent KD of MS2 coat protein (MS2 coat protein [1]): 0.0234 µM; apparent KD of MS2 coat protein (MS2 coat protein [2]): 0.0371 µM |
| AAAAAACAUGAGGAUCACCCAUGUCAGGAUAUCAUAAAAAAAAAAAAAAAAAAAAAAGUGAGAAGGGACAAAAA [exclusion1-cac1] | – | – | – | apparent KD of MS2 coat protein (MS2 coat protein [1]): 0.0327 µM; apparent KD of MS2 coat protein (MS2 coat protein [2]): 0.0429 µM |
| UUAAUGAUGUAAGGAUAUACAUGAGGAUUUCUCGUAGAAGGUACAAGACAUGAGGAUCACCCAUGUGUCGCUCCGUAGAGCGUA [JL SSNG1 1.09] (Eterna round: R96, puzzle: Same State NG 1) | 0.132 µM | – | – | – |
| UUACUCAUGUAAGGAUAUGCAGCCGUUUCGGCUGCAGAAGGUACUAUAAUACAUGAGGAUCACCCAUGUCUUUUUAAUUUUGAC [JL SSNG1 1.27] (Eterna round: R96, puzzle: Same State NG 1) | 0.0345 µM | 0.0793 µM | 0.0392 µM | – |
| UUAUUAAUUACAUGAGGAUCACCCAUGUUUUUAUGUCAGAGACAGGAUAUAGAAGUCUCGUUUUACUAGAAGGGUCAUUAUAAG [JR_SSNG3_Sub015] (Eterna round: R96, puzzle: Same State NG 3) | 0.0164 µM | 0.0186 µM | 0.0192 µM | – |
| UUAUUAUUUACAUGAGGAUCACCCAUGUUUUUAUGUCUUAGACAGGAUAUAGUAGUCUCGUUUUACUAGAAGGGUCUUUUUAUU [JR_SSNG3_Sub018] (Eterna round: R96, puzzle: Same State NG 3) | 0.0319 µM | 0.0213 µM | 0.0394 µM | – |
| UUCCACGUUGCACAGGAUAUCCAAGCCGUGACAUGAGGAUCACCCAUGUCUAGUAGGCGACUAAGGGAGAAGGGUGUUGUCGUGC [Biuser] (puzzle: Same State 2) | – | – | – | apparent KD of MS2 coat protein (MS2 coat protein [3]; [5]): 0.0108 µM; apparent KD of MS2 coat protein (MS2 coat protein [3]; [6]): 0.0101 µM; apparent KD of MS2 coat protein (MS2 coat protein [3]; [7]): 0.0101 µM |
| UUCUCAUUUACAUGAGGAUCACCCAUGUUUUUUUGUAGGAAAUAGGAUAUAGGUCUCUCGUUUUACUAGAAGGAUUUCCUUAUU [JR_SSNG3_Sub090] (Eterna round: R96, puzzle: Same State NG 3) | 0.038 µM | 0.0515 µM | 0.0485 µM | – |
| UUCUCUCUGGUAGGAUAUGUAGGAUAUGUACAUGAGGAUCACCCAUGUCAGUUAAUGACAGAAGGAUAGAAGGACCAGAUCUCU [pwkr ssNG2 2FMN 1F5s.2] (Eterna round: R96, puzzle: Same State NG 2) | 0.0724 µM | 0.115 µM | 0.127 µM | – |
| UUGAAGAAUAUAGGAUAUUGAAUACAUAUGUUUAACAUGAGGAUCACCCAUGUGGGUUGCGGUAUCGAGAAGGAUAAAUAAAAG [Mat - Same State NG 2 - JL mod - D14] (Eterna round: R96, puzzle: Same State NG 2) | 0.162 µM | 0.203 µM | 0.181 µM | – |
| UUGAAGAAUUAAGGAUAUCGAGUCGUCUAAUUAAACAUGAGGAUCACCCAUGUGGGUUGCGGUAUCGAGAAGGUAAAUUACUAG [JL JR Sub099 mod 3] (Eterna round: R96, puzzle: Same State NG 2) | 0.0228 µM | 0.0252 µM | 0.037 µM | – |
| UUGAAGAAUUAAGGAUAUUGAGUACAUAUGUAAAACAUGAGGAUCACCCAUGUGGGUUGCGGUAUCGAGAAGGUAAAAUAAUAG [Mat - same State NG 2 - JL mod - D71] (Eterna round: R96, puzzle: Same State NG 2) | 0.0796 µM | 0.0745 µM | 0.0816 µM | – |
| UUGAGAAAUUAAGGAUAUUGAGUACAUAUGUUUAACAUGAGGAUCACCCAUGUGGGUUGCGGUAUCGAGAAGGUAAAUUACUAG [Mat - same State NG 2 - JL mod - D72] (Eterna round: R96, puzzle: Same State NG 2) | 0.0647 µM | 0.138 µM | 0.112 µM | – |
| UUGCGCUGUCGAGAGGAUAUGCGGUGUUGGACAUGAGGAUCACCCAUGUUAGCGAUAGCUUUACGGUAGAAGGCUCUUCAGCUGC [salish99_ss2_r3_097] (puzzle: Same State 2) | – | – | – | apparent KD of MS2 coat protein (MS2 coat protein [3]; [6]): 0.099 µM |
| UUGCGGGCUUGAGGAUAUUGAGUACAUAUGUUUAACAUGAGGAUCACCCAUGUGGGUUGCGGUAUCGAGAAGGUAACUUCCUUC [salish99_SSNG2_r04_810] (Eterna round: R96, puzzle: Same State NG 2) | 0.146 µM | 0.19 µM | 0.157 µM | – |
| UUGGUACAUGAGGAUCACCCAUGUGGGUCGGUCGCAGGAUAUGCCCGUGGGCGCUUGCGGGCAGAAGGGUGCCGUA [Same State1-X] (Eterna round: R96, puzzle: Same State 1) | 0.386 µM | 0.173 µM | 1 µM | – |
| UUGUUUCGUCAUUAACAUGAGGAUCACCCAUGUAAAGGAGCAGAGGAUAUGCAUGUUUGAUUGUAGCAGAAGGCUGAUUGUUGU [JR_SSNG3_Sub034] (Eterna round: R96, puzzle: Same State NG 3) | 0.0279 µM | 0.0326 µM | 0.0319 µM | – |
| UUGUUUCGUCAUUAACAUGAGGAUCACCCAUGUAUUGACCCAAAGGAUAUAUAUGUUUGUUUGUAAUAGAAGGUUGAUUGUUGU [JR_SSNG3_Sub091] (Eterna round: R96, puzzle: Same State NG 3) | 0.0168 µM | 0.0199 µM | 0.0206 µM | – |
| UUUAGAUUCAGAGGAUAUUGAUGUUGUAUUUUACAAGAAGGCUGAUUGGUUUGAAAUGUUAUUAAACAUGAGGAUCACCCAUGU [JR_SSNG1_Sub012] (Eterna round: R96, puzzle: Same State NG 1) | 0.0323 µM | 0.0317 µM | 0.0445 µM | – |
| UUUAGUUGCGCGCAGGAUAUGUAUUAAUAUACAUGAGGAUCACCCAUGUGAGACCAAAUAGGUCUACAGAAGGGCGAAUCGCGAC [Laonerce - 29] (Eterna round: R96, puzzle: Same State 2) | 0.182 µM | 0.0426 µM | 0.354 µM | – |
| UUUAGUUGCGCGCAGGAUAUGUAUUAAUAUACAUGAGGAUCACCCAUGUGAGACCAAAUAGGUCUACAGAAGGGCGAAUCGCGAC [Laonerce - 29] (puzzle: Same State 2) | – | – | – | apparent KD of MS2 coat protein (MS2 coat protein [3]; [5]): 0.0294 µM; apparent KD of MS2 coat protein (MS2 coat protein [3]; [6]): 0.234 µM; apparent KD of MS2 coat protein (MS2 coat protein [3]; [7]): 0.715 µM |
| UUUAGUUGCGGGCAGGAUAUGUAUUAAAGUACAUGAGGAUCACCCAUGUGCGGGUAUAACACCCGACAGAAGGGCCAAUCGCGAC [Laonerce - 1] (puzzle: Same State 2) | – | – | – | apparent KD of MS2 coat protein (MS2 coat protein [3]; [5]): 0.0177 µM; apparent KD of MS2 coat protein (MS2 coat protein [3]; [6]): 0.0643 µM; apparent KD of MS2 coat protein (MS2 coat protein [3]; [7]): 0.115 µM |
| UUUAUACAUGAGGAUCACCCAUGUCAAUGUAGUCGAGGAUAUGGGCAGCCGUGAGGCGUACUAGAAGGCGAAGAGG [JL-ss1-3.09 ViennaUCT mod] (puzzle: Same State 1) | – | – | – | apparent KD of MS2 coat protein (MS2 coat protein [3]; [6]): 0.117 µM |
| UUUUUAUAACAUGAGGAUCACCCAUGUGCGCGCACAAGGUUGUUGCUCGUCUUAUUUUUUUUUUUUUUUUUUUUUUU [viviankchen2] (puzzle: Sensor for hsa-mir-208a version 2) | – | – | – | apparent KD of MS2 coat protein (MS2 coat protein [3]; [5]): 0.0332 µM; apparent KD of MS2 coat protein (MS2 coat protein [3]; [6]): 0.22 µM; apparent KD of MS2 coat protein (MS2 coat protein [3]; [7]): 0.0441 µM |
